This note sets out measurements from patent publication US20150376252A1 (VAN ANDEL RESEARCH INSTITUTE, published 2015).

To fix the notation:
B2: Fz4-YFP-N (full-length human Fz4 with YFP residues 1-158 at the C-terminus) (receptor, UniProt Q9ULV1 37-537, looked up)
chain: FGDEEERRCDPIRISMCQNLGYNVTKMPNLVGHELQTDAELQLTTFTPLIQYGCSSQLQFFLCSVYVPMCTEKINIPIGPCGGMCLSVKRRCEPVLKEFGFAWPESLNCSKFPPQNDHNHMCMEGPGDEEVPLPHKTPIQPGEECHSVGTNSDQYIWVKRSLNCVLKCGYDAGLYSRSAKEFTDIWMAVWASLCFISTAFTVLTFLIDSSRFSYPERPIIFLSMCYNIYSIAYIVRLTVGRERISCDFEEAAEPVLIQEGLKNTGCAIIFLLMYFFGMASSIWWVILTLTWFLAAGLKWGHEAIEMHSSYFHIAAWAIPAVKTIVILIMRLVDADELTGLCYVGNQNLDALTGFVVAPLFTYLVIGTLFIAAGLVALFKIRSNLQKDGTKTDKLERLMVKIGVFSVLYTVPATCVIACYFYEISNWALFRYSADDSNMAVEMLKIFMSLLVGITSGMWIWSAKTLHTWQKCSNRLVNSGKVKREKRGNGWVKPGKGSETVV
notes: whole, on cells; also called YFP-N-tagged Fz4; not shown: YFP-N, residues 1-158 of YFP

Where two headings read alike, the source gives them in different places.

Assay [1] concerns the target biotinylated MBP-Norrin (human). Briefly: AlphaScreen luminescence proximity assay.
Assay [2] deals with T1, MBP-Norrin (maltose binding protein fused to the N-terminus of human Norrin residues 25-133, wild-type) (human). Briefly: three-step biolayer interferometry: Lrp6 BP3-4 on MBP-Norrin pre-bound to Fz4-FcH6 sensors. Background: BLI is a label-free optical method that tracks binding on a fibre tip over time.
The target in assay [3] is T2, Fz4-YFP-C (full-length human Fz4 with YFP residues 159-239 at the C-terminus) (human, UniProt Q9ULV1 37-537).
T2 construct: whole, on cells; also called YFP-C-tagged Fz4; not shown: YFP-C, residues 159-239 of YFP
T2 sequence (looked up): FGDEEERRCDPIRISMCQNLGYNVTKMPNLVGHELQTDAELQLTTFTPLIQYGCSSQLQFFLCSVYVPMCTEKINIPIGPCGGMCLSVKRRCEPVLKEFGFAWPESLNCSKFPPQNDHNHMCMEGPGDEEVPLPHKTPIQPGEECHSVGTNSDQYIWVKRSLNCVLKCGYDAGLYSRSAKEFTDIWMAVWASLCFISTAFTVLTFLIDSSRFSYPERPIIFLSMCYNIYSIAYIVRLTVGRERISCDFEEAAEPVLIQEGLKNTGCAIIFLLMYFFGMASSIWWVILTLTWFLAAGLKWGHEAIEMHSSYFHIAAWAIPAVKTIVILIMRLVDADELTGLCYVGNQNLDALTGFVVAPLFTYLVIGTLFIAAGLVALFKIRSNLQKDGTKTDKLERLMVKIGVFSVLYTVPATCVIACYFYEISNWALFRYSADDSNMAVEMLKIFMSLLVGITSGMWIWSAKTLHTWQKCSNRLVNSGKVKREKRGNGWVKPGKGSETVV
Briefly: split-YFP complementation: fluorescence microscopy, emission spectrum, anisotropy.

The target of assay [4] is T3, Fz4-YFP (full-length human Fz4 with yellow fluorescent protein at the C-terminus) (human, UniProt Q9ULV1 37-537).
T3 construct: whole, on cells; also called YFP-tagged Fz4; not shown: YFP
T3 sequence (looked up): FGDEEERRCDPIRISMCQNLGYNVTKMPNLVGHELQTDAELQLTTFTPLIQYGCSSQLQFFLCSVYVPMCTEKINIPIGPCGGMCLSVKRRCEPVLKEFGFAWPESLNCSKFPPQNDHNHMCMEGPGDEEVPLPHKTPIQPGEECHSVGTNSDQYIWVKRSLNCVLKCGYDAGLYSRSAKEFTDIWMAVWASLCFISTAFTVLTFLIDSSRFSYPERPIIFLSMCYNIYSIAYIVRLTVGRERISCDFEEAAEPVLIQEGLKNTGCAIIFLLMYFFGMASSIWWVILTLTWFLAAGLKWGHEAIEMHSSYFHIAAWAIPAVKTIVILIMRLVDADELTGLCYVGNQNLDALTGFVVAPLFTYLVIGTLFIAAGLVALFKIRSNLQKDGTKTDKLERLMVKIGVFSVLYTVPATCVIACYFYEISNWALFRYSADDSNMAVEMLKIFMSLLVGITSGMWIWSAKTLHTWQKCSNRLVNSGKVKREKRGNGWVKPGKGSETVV
Briefly: static BRET in transfected COS-1 cells. A general note: In BRET a luciferase serves as donor, and the signal depends on an acceptor being close.

The target of assay [5] is B2. Briefly: split-YFP BRET assay (FIG. 6D).
The target of assay [6] is T2, Fz4-YFP-C (full-length human Fz4 with …). Briefly: split-YFP BRET assay (FIG. 6D).
For assay [7], the target named is T1, MBP-Norrin (maltose binding protein …). Briefly: biolayer interferometry, Fz8-FcH6 on the sensor, MBP-Norrin in solution.
Assay [8] addresses biotinylated MBP-Norrin (human). Briefly: AlphaScreen luminescence proximity assay. The source holds these as a separate data set. For orientation: In Alpha technology, singlet oxygen from a donor bead excites a nearby acceptor bead.

B1: Lrp6 BP3-4 (Lrp6 extracellular beta-propeller domains 3 and 4) (receptor)
chain: VPEAFLLFSRRADIRRISLETNNNNVAIPLTGVKEASALDFDVTDNRIYWTDISLKTISRAFMNGSALEHVVEFGLDYPEGMAVDWLGKNLYWADTGTNRIEVSKLDGQHRQVLVWKDLDSPRALALDPAEGFMYWTEWGGKPKIDRAAMDGSERTTLVPNVGRANGLTIDYAKRRLYWTDLDTNLIESSNMLGLNREVIADDLPHPFGLTQYQDYIYWTDWSRRSIERANKTSGQNRTIIQGHLDYVMDILVFHSSRQSGWNECASSNGHCSHLCLAVPVGGFVCGCPAHYSLNADNRTCSAPTTFLLFSQKSAINRMVIDEQQSPDIILPIHSLRNVRAIDYDPLDKQLYWIDSRQNMIRKAQEDGSQGFTVVVSSVPSQNLEIQPYDLSIDIYSRYIYWTCEATNVINVTRLDGRSVGVVLKGEQDRPRAVVVNPEKGYMYFTNLQERSPKIERAALDGTEREVLFFSGLSKPIALALDSRLGKLFWADSDLRRIESSDLSGANRIVLEDSNILQPVGLTVFENWLYWIDKQQQMIEKIDMTGREGRTKVQARIAQLSDIHAVKELNLQEYRQHPCAQDNGGCSHICLVKGDGTTRCSCPMHLVLLQDELSCG
notes: domain: β-propeller domains 3-4 (BP3-4); not shown: His8 tag (His8 tagged Lrp6 ECD proteins)
For B1, the binding result in assay [1] is “no binding”; in assay [2], “no binding (tested: 40 µg/ml)”.
In the case of B2, the binding result in assay [3] is listed as “binds”.

B3: Tspan12-Rlu (human Tspan12 with Renilla luciferase at the C-terminus) (other, UniProt O95859 1-305, looked up)
chain: MAREDSVKCLRCLLYALNLLFWLMSISVLAVSAWMRDYLNNVLTLTAETRVEEAVILTYFPVVHPVMIAVCCFLIIVGMLGYCGTVKRNLLLLAWYFGSLLVIFCVELACGVWTYEQELMVPVQWSDMVTLKARMTNYGLPRYRWLTHAWNFFQREFKCCGVVYFTDWLEMTEMDWPPDSCCVREFPGCSKQAHQEDLSDLYQEGCGKKMYSFLRGTKQLQVLRFLGISIGVTQILAMILTITLLWALYYDRREPGTDQMMSLKNDNSQHLSCPSVELLKPSLSRIFEHTSMANSFNTHFEMEEL
notes: whole, on cells; also called Rlu-tagged Tspan12; not shown: Renilla luciferase (Rlu)
Consider B3, for which the binding result in assay [4], in assay [5] and in assay [6] was “binds” in each case.

B4: Fz8-FcH6 (Frizzled 8 CRD, residues 28-155, fused to Fc and His6 tags) (Fc fusion)
chain: ASAKELACQEITVPLCKGIGYNYTYMPNQFNHDTQDEAGLEVHQFWPLVEIQCSPDLKFFLCSMYTPICLEDYKKPLPPCRSVCERAKAGCAPLMRQYGFAWPDRMRCDRLPEQGNPDTLCMDYNRTD
notes: range 28-155; also called Fz8 CRD; not shown: Fc tag of the pHL-IgL-FcH6 vector; His6 tag (six histidines)
On to B4, for which the binding result in assay [7] and in assay [8] was “no binding” in each case.
